Values belong to the binder of their own block, whether it stands above or below them.
Columns and labels:
[1] = target: GLP-1 receptor (GLP-1R), stably expressed on HEK293 cells; test: cell-based or functional assay
[2] = target: Glucagon receptor (GCGR), stably expressed on HEK293 cells; test: cell-based or functional assay

GLP-1R (nM EC50), receptor-mediated cAMP production in HEK293 cells [1]: 0.516 nM
GCGR (nM EC50), receptor-mediated cAMP production in HEK293 cells [2]: 0.821 nM
B1: dgc014 (peptide)
peptide: HXQGTFTSDYSKYLDERAAKEFIAWLEGG
HELM: PEPTIDE1{H.[Aib].Q.G.T.F.T.S.D.Y.S.K.Y.L.D.E.R.A.A.K.E.F.I.A.W.L.E.G.G.[am]}|PEPTIDE2{[CCCCCCCCCCCCCCCC(=O)[*:2]].[gGlu]}$PEPTIDE1,PEPTIDE2,20:R3-2:R2$$$V2.0; N-terminus assumed
SMILES: CCCCCCCCCCCCCCCC(=O)N[C@@H](CCC(=O)NCCCC[C@H](NC(=O)[C@H](C)NC(=O)[C@H](C)NC(=O)[C@H](CCCNC(=N)N)NC(=O)[C@H](CCC(=O)O)NC(=O)[C@H](CC(=O)O)NC(=O)[C@H](CC(C)C)NC(=O)[C@H](Cc1ccc(O)cc1)NC(=O)[C@H](CCCCN)NC(=O)[C@H](CO)NC(=O)[C@H](Cc1ccc(O)cc1)NC(=O)[C@H](CC(=O)O)NC(=O)[C@H](CO)NC(=O)[C@@H](NC(=O)[C@H](Cc1ccccc1)NC(=O)[C@@H](NC(=O)CNC(=O)[C@H](CCC(N)=O)NC(=O)C(C)(C)NC(=O)[C@@H](N)Cc1c[nH]cn1)[C@@H](C)O)[C@@H](C)O)C(=O)N[C@@H](CCC(=O)O)C(=O)N[C@@H](Cc1ccccc1)C(=O)N[C@H](C(=O)N[C@@H](C)C(=O)N[C@@H](Cc1c[nH]c2ccccc12)C(=O)N[C@@H](CC(C)C)C(=O)N[C@@H](CCC(=O)O)C(=O)NCC(=O)NCC(N)=O)[C@@H](C)CC)C(=O)O

GLP-1R (nM EC50), receptor-mediated cAMP production in HEK293 cells [1]: 0.319 nM
GCGR (nM EC50), receptor-mediated cAMP production in HEK293 cells [2]: 1.99 nM
B2: dgc013 (peptide)
peptide: HXQGTFTSDYSKYLDERAAKEFIAWLEGG
HELM: PEPTIDE1{H.[Aib].Q.G.T.F.T.S.D.Y.S.K.Y.L.D.E.R.A.A.K.E.F.I.A.W.L.E.G.G.[am]}|PEPTIDE2{[CCCCCCCCCCCCCCCC(=O)[*:2]].[gGlu].[gGlu]}$PEPTIDE1,PEPTIDE2,20:R3-3:R2$$$V2.0; N-terminus assumed
SMILES: CCCCCCCCCCCCCCCC(=O)N[C@@H](CCC(=O)N[C@@H](CCC(=O)NCCCC[C@H](NC(=O)[C@H](C)NC(=O)[C@H](C)NC(=O)[C@H](CCCNC(=N)N)NC(=O)[C@H](CCC(=O)O)NC(=O)[C@H](CC(=O)O)NC(=O)[C@H](CC(C)C)NC(=O)[C@H](Cc1ccc(O)cc1)NC(=O)[C@H](CCCCN)NC(=O)[C@H](CO)NC(=O)[C@H](Cc1ccc(O)cc1)NC(=O)[C@H](CC(=O)O)NC(=O)[C@H](CO)NC(=O)[C@@H](NC(=O)[C@H](Cc1ccccc1)NC(=O)[C@@H](NC(=O)CNC(=O)[C@H](CCC(N)=O)NC(=O)C(C)(C)NC(=O)[C@@H](N)Cc1c[nH]cn1)[C@@H](C)O)[C@@H](C)O)C(=O)N[C@@H](CCC(=O)O)C(=O)N[C@@H](Cc1ccccc1)C(=O)N[C@H](C(=O)N[C@@H](C)C(=O)N[C@@H](Cc1c[nH]c2ccccc12)C(=O)N[C@@H](CC(C)C)C(=O)N[C@@H](CCC(=O)O)C(=O)NCC(=O)NCC(N)=O)[C@@H](C)CC)C(=O)O)C(=O)O

From patent US20230174608A1 (published 2023)
